Assay results as given in patent publication US9493557B2, “Chemokine binding polypeptides for treating autoimmunity and inflammation” (Biokine Therapeutics Ltd., priority 2009, dated 2016).

Experiments:
Type in all cases: cell-based
[1] = molecular target: T1, MIG (Homo sapiens, UniProt Q07325); experiment: In vitro T cell adhesion to VCAM-1 induced by MIG under shear flow; conditions: for Inhibition of chemokine-dependent T cell adhesion: MIG: 10 μg/ml peptide, T cells on VCAM-1 under shear flow
T1 construct: purchased PeproTech
T1 sequence (Q07325 23-125): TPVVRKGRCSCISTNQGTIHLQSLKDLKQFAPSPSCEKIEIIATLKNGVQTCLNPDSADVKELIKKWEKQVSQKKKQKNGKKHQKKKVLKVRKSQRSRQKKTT
Method: (§1) 50 ml of blood was added to 10 ml of a solution of Dextran T-500 (6% w/v) in PBS (phosphate buffer saline), and 7 ml of citrate buffer (25 grams citrate, 8 grams citric acid in 500 ml PBS). The solution was incubated for 30 minutes at 25° C. 10 ml of Ficoll 1077 was added to the bottom of the tube. The tube was then centrifuged at 2,000 rotations per minute for 30 minutes at 18° C. (with the brake mode of the centrifuge off). The interphase was collected and washed twice with 8 ml PBS with 5% FCS (fetal calf serum), followed by centrifugation at 1,400 rotations per minute for 5 minutes at 18° C. The cells were re-suspended in PBS with 5% FCS at a concentration less then 10^8 per ml. 2 ml of the cell solution were applied on a poly(methyl methacrylate) nylon wool column which was pre-soaked in PBS-5% FCS, and then incubated for 45 minutes at 25° C. Each column was washed with 8 ml PBS-5% FCS and the cells (T-cells and erythrocytes) were eluted by 50 ml of 5 mM EDTA (ethylenediaminetetraacetic acid) in PBS. A red pellet was obtained by centrifugation at 1,400 rotations per minute for 5 minutes at 4° C. (with the brake on).
(§2) In order to perform lysis of the erythrocytes, the red pellet was re-suspended in 5 ml of lysis-buffer (155 mM NH4Cl, 10 mM KHCO3, 0.1 mM EDTA, X0.1 PBS) for 4 minutes, followed by immediate addition of 50 ml of PBS with EDTA. Following centrifugation at 1,400 rotations per minute for 5 minutes at 4° C., the pellet was washed again with 50 ml PBS-EDTA and re-centrifuged under the same conditions. […] The cells were ready for use in experiments after overnight incubation at 37° C. […]
(§3) The plates were then assembled as the lower wall of a parallel wall flow chamber and mounted on the stage of an inverted microscope. […] The number of adherent cells resisting detachment by the elevated shear forces was determined after each interval by analysis of videotaped cell images, and was expressed as the percent of originally settled cells. […]

[2] = molecular target: T2, I-TAC (Homo sapiens, UniProt O14625); experiment: In vitro T cell adhesion to VCAM-1 induced by I-TAC under shear flow; conditions: for Inhibition of chemokine-dependent T cell adhesion: I-TAC: 10 μg/ml peptide, T cells on VCAM-1 under shear flow; for T cell adhesion induced by I-TAC (result in words): T cells on VCAM-1
T2 construct: purchased PeproTech
T2 sequence (O14625 22-94): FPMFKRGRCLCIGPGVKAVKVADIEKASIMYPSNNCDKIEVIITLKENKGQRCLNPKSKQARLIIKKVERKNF
Method: as §1
(§4) In order to perform lysis of the erythrocytes, the red pellet was re-suspended in 5 ml of lysis-buffer (155 mM NH4Cl, 10 mM KHCO3, 0.1 mM EDTA, X0.1 PBS) for 4 minutes, followed by immediate addition of 50 ml of PBS with EDTA. Following centrifugation at 1,400 rotations per minute for 5 minutes at 4° C., the pellet was washed again with 50 ml PBS-EDTA and re-centrifuged under the same conditions. A white pellet was obtained and re-suspended in RPMI medium with 10% FCS, L-glutamine, sodium pyruvate and antibiotics at a concentration of 3×10^6 cells per ml. The cells were incubated for 2 hours at 37° C., followed by collection of the non-adherent cells. The cells were ready for use in experiments after overnight incubation at 37° C.
(§5) 10 μg/ml of human VCAM-1 and 2 μg/ml of a chemokine (intact MIG, IP-10, I-TAC, MCP-1, RANTES, SDF-1 (stromal cell-derived factor-1), BCA-1 (B lymphocyte chemoattractant-1), IL-8 (interleukin-8) or eotaxin, or heat-inactivated SDF-1 as a control) were dissolved in PBS buffered with 20 mM bicarbonate (pH 8.5), and incubated in polystyrene plates overnight at 4° C. Alternatively, 10 μg/ml of the chemokine was used, and the plates were incubated for 30 minutes at room temperature. […]
as §3

[3] = molecular target: T3, IL-8 (Homo sapiens, UniProt P10145); experiment: In vitro T cell adhesion to VCAM-1 induced by IL-8 under shear flow; conditions: 10 μg/ml peptide; T cells on VCAM-1 under shear flow
T3 construct: purchased PeproTech
T3 sequence (P10145 21-99): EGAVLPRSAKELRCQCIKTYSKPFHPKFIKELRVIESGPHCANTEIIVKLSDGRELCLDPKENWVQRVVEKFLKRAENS
Method: (§6) 50 ml of blood was added to 10 ml of a solution of Dextran T-500 (6% w/v) in PBS (phosphate buffer saline), and 7 ml of citrate buffer (25 grams citrate, 8 grams citric acid in 500 ml PBS). The solution was incubated for 30 minutes at 25° C. 10 ml of Ficoll 1077 was added to the bottom of the tube. The tube was then centrifuged at 2,000 rotations per minute for 30 minutes at 18° C. (with the brake mode of the centrifuge off). The interphase was collected and washed twice with 8 ml PBS with 5% FCS (fetal calf serum), followed by centrifugation at 1,400 rotations per minute for 5 minutes at 18° C. The cells were re-suspended in PBS with 5% FCS at a concentration less then 10^8 per ml. […]
(§7) In order to perform lysis of the erythrocytes, the red pellet was re-suspended in 5 ml of lysis-buffer (155 mM NH4Cl, 10 mM KHCO3, 0.1 mM EDTA, X0.1 PBS) for 4 minutes, followed by immediate addition of 50 ml of PBS with EDTA. […] The cells were ready for use in experiments after overnight incubation at 37° C. […]
as §3

[4] = molecular target: T4, SDF-1 (Homo sapiens, UniProt P48061); experiment: In vitro T cell adhesion to VCAM-1 induced by SDF-1 under shear flow; conditions: 10 μg/ml peptide; T cells on VCAM-1 under shear flow
T4 construct: purchased PeproTech
T4 sequence (P48061 22-89 limits assumed): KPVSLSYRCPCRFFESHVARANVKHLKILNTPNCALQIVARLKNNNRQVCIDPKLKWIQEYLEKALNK
Method: as §6, §7, §3

[5] = molecular target: T5, Eotaxin (Homo sapiens, UniProt P51671); experiment: In vitro T cell adhesion to VCAM-1 induced by eotaxin under shear flow; conditions: for Inhibition of chemokine-dependent T cell adhesion: Eotaxin: 10 μg/ml peptide, T cells on VCAM-1 under shear flow
T5 construct: purchased PeproTech
T5 sequence (P51671 24-97): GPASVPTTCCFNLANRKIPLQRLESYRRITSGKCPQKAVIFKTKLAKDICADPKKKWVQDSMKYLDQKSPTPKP
Method: as §1, §2, §3

[6] = molecular target: T6, IP-10 (Homo sapiens, UniProt P02778); experiment: In vitro T cell adhesion to VCAM-1 induced by IP-10 under shear flow; conditions: for Inhibition of chemokine-dependent T cell adhesion: IP-10: 10 μg/ml peptide, T cells on VCAM-1 under shear flow
T6 construct: purchased PeproTech
T6 sequence (P02778 22-98): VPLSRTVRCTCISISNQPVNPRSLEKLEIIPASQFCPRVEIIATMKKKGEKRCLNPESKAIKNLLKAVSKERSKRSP
Method: as §1, §2, §3

[7] = molecular target: T7, MCP-1 (Homo sapiens, UniProt P13500); experiment: In vitro T cell adhesion to VCAM-1 induced by MCP-1 under shear flow; conditions: for Inhibition of chemokine-dependent T cell adhesion: MCP-1: 10 μg/ml peptide, T cells on VCAM-1 under shear flow; for T cell adhesion induced by MCP-1 (result in words): T cells on VCAM-1
T7 construct: purchased PeproTech
T7 sequence (P13500 24-99): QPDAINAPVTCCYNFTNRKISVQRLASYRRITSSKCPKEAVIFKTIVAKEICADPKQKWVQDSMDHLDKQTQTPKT
Method: as §1, §4, §5, §3

[8] = molecular target: T8, RANTES (Homo sapiens, UniProt P13501); experiment: In vitro T cell adhesion to VCAM-1 induced by RANTES under shear flow; conditions: for Inhibition of chemokine-dependent T cell adhesion: RANTES: 10 μg/ml peptide, T cells on VCAM-1 under shear flow; for T cell adhesion induced by RANTES (result in words): T cells on VCAM-1
T8 construct: purchased PeproTech
T8 sequence (P13501 24-91): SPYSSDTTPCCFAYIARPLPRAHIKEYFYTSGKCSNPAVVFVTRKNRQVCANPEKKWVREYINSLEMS
Method: as §1, §4, §5, §3

[9] = molecular target: T9, BCA-1 (Homo sapiens, UniProt O43927); experiment: In vitro T cell adhesion to VCAM-1 induced by BCA-1 under shear flow; conditions: 10 μg/ml peptide; T cells on VCAM-1 under shear flow
T9 sequence (O43927 23-109): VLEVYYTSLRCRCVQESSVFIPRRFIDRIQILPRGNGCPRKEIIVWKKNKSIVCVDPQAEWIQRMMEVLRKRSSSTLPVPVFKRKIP
Method: as §6, §7, §3

LDYPIPQTVLHH [BKT-P46, reference compound]
++ (++ = 100% inhibition): Inhibition of chemokine-dependent T cell adhesion: MIG [1] | Inhibition of chemokine-dependent T cell adhesion: I-TAC [2] | Inhibition of chemokine-dependent T cell adhesion: MCP-1 [7] | Inhibition of chemokine-dependent T cell adhesion: RANTES [8]
inhibited: T cell adhesion induced by MIG (result in words) ([1]; T cells on VCAM-1) | T cell adhesion induced by I-TAC (result in words) [2] | T cell adhesion induced by MCP-1 (result in words) [7] | T cell adhesion induced by RANTES (result in words) [8]
− (− = no inhibition): Inhibition of chemokine-dependent T cell adhesion: IL-8 [3] | Inhibition of chemokine-dependent T cell adhesion: SDF-1 [4] | Inhibition of chemokine-dependent T cell adhesion: Eotaxin [5] | Inhibition of chemokine-dependent T cell adhesion: IP-10 [6]

SIPSHSIHSAKA [BKT-P2, reference compound]
++ (++ = 100% inhibition): Inhibition of chemokine-dependent T cell adhesion: I-TAC [2] | Inhibition of chemokine-dependent T cell adhesion: Eotaxin [5] | Inhibition of chemokine-dependent T cell adhesion: IP-10 [6] | Inhibition of chemokine-dependent T cell adhesion: MCP-1 [7] | Inhibition of chemokine-dependent T cell adhesion: RANTES [8]
inhibited: T cell adhesion induced by I-TAC (result in words) [2] | T cell adhesion induced by eotaxin (result in words) ([5]; T cells on VCAM-1) | T cell adhesion induced by IP-10 (result in words) ([6]; T cells on VCAM-1) | T cell adhesion induced by MCP-1 (result in words) [7] | T cell adhesion induced by RANTES (result in words) [8]
− (− = no inhibition): Inhibition of chemokine-dependent T cell adhesion: MIG [1] | Inhibition of chemokine-dependent T cell adhesion: BCA-1 [9] | Inhibition of chemokine-dependent T cell adhesion: SDF-1 [4]
